Columns and labels:
murine CCL12 [1] = target: T1, murine CCL12 (mouse, UniProt Q62401 23-104); assay: SPR, R17 on CM5 chip; t1/2
T1 construct: also called mCCL12
T1 sequence: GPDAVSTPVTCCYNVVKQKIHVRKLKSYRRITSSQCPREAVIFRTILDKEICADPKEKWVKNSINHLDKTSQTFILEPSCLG

murine CCL24 = target: T2, murine CCL24 (mouse, UniProt Q9JKC0 27-119); assay: SPR, R17 on CM5 chip; t1/2
T2 construct: also called mCCL24
T2 sequence: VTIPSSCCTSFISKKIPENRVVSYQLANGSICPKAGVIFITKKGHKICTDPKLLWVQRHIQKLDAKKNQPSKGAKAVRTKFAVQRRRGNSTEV

murine CCL2 [2] = target: T3, murine CCL2 (mouse, UniProt P10148 24-148); assay: SPR, R17 on CM5 chip; t1/2
T3 construct: also called mCCL2
T3 sequence (P10148 24-148 limits assumed): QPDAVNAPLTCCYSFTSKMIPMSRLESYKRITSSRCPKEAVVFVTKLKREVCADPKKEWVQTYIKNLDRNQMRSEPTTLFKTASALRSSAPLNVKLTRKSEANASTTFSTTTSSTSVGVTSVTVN

murine CCL8 [3] = target: T4, murine CCL8 (mouse, UniProt Q9Z121 24-97); assay: SPR, R17 on CM5 chip; t1/2
T4 construct: also called mCCL8
T4 sequence: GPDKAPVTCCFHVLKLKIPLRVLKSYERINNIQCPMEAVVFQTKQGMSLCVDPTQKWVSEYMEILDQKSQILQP

human CCL5 = target: T5, human CCL5 (human, UniProt P13501 24-91); assay: SPR, R17 on CM5 chip; t1/2
T5 construct: also called hCCL5
T5 sequence: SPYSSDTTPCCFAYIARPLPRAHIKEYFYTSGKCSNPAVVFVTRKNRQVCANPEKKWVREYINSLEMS

murine CCL4 = target: T6, murine CCL4 (mouse, UniProt P14097 24-92); assay: SPR, R17 on CM5 chip; t1/2
T6 construct: also called mCCL4
T6 sequence: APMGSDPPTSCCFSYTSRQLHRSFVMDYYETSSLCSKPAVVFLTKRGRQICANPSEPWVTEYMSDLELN

[4] = target: T7, murine XCL1 (lymphotactin) (mouse, UniProt P47993 22-114); assay: SPR, R17 on CM5 chip; t1/2
T7 construct: also called mXCL1; lymphotactin (XCL1)
T7 sequence: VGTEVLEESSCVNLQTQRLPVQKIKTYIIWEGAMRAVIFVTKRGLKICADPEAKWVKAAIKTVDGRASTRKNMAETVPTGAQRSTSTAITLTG

murine CCL3 [5] = target: T8, murine CCL3 (mouse, UniProt P10855 24-92); assay: SPR, R17 on CM5 chip; t1/2
T8 construct: also called mCCL3
T8 sequence: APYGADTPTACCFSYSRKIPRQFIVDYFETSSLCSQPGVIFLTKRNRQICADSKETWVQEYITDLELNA

murine CCL5 = target: T9, murine CCL5 (mouse, UniProt P30882 24-91); assay: SPR, R17 on CM5 chip; t1/2
T9 construct: also called mCCL5
T9 sequence (P30882 24-91 limits assumed): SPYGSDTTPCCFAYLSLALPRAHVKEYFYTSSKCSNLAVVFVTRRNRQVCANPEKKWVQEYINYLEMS

murine CCL20 [6] = target: T10, murine CCL20 (mouse, UniProt O89093 28-97); assay: SPR, R17 on CM5 chip; t1/2
T10 construct: also called mCCL20
T10 sequence: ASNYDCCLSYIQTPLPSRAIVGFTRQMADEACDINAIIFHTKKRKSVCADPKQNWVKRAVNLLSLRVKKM

CCL9 [7] = target: T11, CCL9 (UniProt P51670 22-122); assay: SPR, R17 on CM5 chip; t1/2
T11 sequence: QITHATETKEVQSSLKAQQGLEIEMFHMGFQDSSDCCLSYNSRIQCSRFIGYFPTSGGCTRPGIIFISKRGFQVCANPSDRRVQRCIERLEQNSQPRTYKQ

[8] = target: CCL2 (species not given); assay: SPR, R17 variant on CM5 chip; column kd x 10^-3 s-1
murine CCL12 [9] = target: T1, murine CCL12; assay: SPR, R17 on CM5 chip, chemokine injected; global 1:1 mass transport fit
murine CCL2 [10] = target: T3, murine CCL2; assay: as above
murine CCL8 [11] = target: T4, murine CCL8; assay: as above
human CCL2 [12] = target: T12, human CCL2 (human, UniProt P13500 24-99); assay: as above
T12 construct: also called hCCL2
T12 sequence (P13500 24-99 limits assumed): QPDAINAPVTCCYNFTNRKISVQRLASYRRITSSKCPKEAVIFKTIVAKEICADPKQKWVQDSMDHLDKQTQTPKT

murine CCL20 [13] = target: T10, murine CCL20; assay: as above
CCL9 [14] = target: T11, CCL9; assay: as above
murine IL-13 = target: T13, murine IL-13 (mouse, UniProt P20109 21-131); assay: SPR, R17 on CM5 chip
T13 construct: also called mIL-13
T13 sequence: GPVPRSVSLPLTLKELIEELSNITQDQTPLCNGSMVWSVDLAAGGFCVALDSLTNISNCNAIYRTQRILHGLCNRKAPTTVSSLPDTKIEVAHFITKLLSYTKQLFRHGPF

murine CCL3 [15] = target: T8, murine CCL3
human CCL3 = target: T14, human CCL3 (human, UniProt P10147 23-92); assay: SPR saturation binding (KD,eq), R17 on CM5 chip
T14 construct: also called hCCL3
T14 sequence: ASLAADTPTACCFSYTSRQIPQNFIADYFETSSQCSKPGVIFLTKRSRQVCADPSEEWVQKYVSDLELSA

human CCL2 [16] = target: T12, human CCL2; assay: SPR saturation binding (KD,eq), R17 on CM5 chip

B1: R17 chemokine decoy receptor of Rodent herpesvirus Peru (RHVP), wild type, C-terminal 8-His fusion (receptor)
chain: GPVGEPVASEINEASKVSSRLLTQDILFRKDRQATISLPIKLPVEDIITQTCDKITYGPLKFLDLLEKETAVLPLSTDITCPACLGRAVLVGKWECPAHVAVNESDLTVFGPNKEEHVPQFVTVQQPSDGKMQRLFFAKFLGTEESLAVLRVPGPDGHLCIQEALIHFKELSGAGVCSLWKANDSREEGLEMKQVDCLETTVLENQTCIATTLSKKIYHRLYCGERLMTGGQVSTRVLLTALGFYKRQPYTFHRVPKGMVYVHLIDSGSEDYMEYSECEEVTPGRYEDKQISYTFYTDLFQTADGEPVLASVWGTSGLKDSAYESCAFVIPTKGRRKLVPRRIMSKCYPFRLTYHPSTMTVRLDVRVEKHHGATDQGFVFLKMESGTYSEGREYYLDRVLWGEDSSTNNVLQ
notes: not shown: C-terminal 8-His tag
**Q.** For B1, which t1/2 (murine CCL12 [1]) is on record?
**A.** 6.9 s

**Q.** What about the t1/2 (murine CCL24) of the same binder?
**A.** > 1000 s

**Q.** And the t1/2 (murine CCL2 [2])?
**A.** 34.6 s

**Q.** What about the t1/2 (murine CCL8 [3]) of the same binder?
**A.** 6.9 s

**Q.** And the t1/2 (human CCL5)?
**A.** > 1000 s

**Q.** And the t1/2 (murine CCL4)?
**A.** > 1000 s

**Q.** And the t1/2 [4]?
**A.** > 1000 s

**Q.** What about the t1/2 (murine CCL3 [5]) of the same binder?
**A.** > 1000 s

**Q.** And the t1/2 (murine CCL5)?
**A.** > 1000 s

**Q.** What about the t1/2 (murine CCL20 [6]) of the same binder?
**A.** 32.2 s

**Q.** And the t1/2 (CCL9 [7])?
**A.** 6.8 s

**Q.** And the koff [8]?
**A.** 0.02 s⁻¹

**Q.** What about the koff (murine CCL12 [9]) of the same binder?
**A.** 0.01 s⁻¹

**Q.** What about the kon (murine CCL12 [9]) of the same binder?
**A.** 8.9e+06 M⁻¹ s⁻¹

**Q.** What about the koff (murine CCL2 [10]) of the same binder?
**A.** 0.02 s⁻¹

**Q.** What about the kon (murine CCL2 [10]) of the same binder?
**A.** 2e+06 M⁻¹ s⁻¹

**Q.** And the koff (murine CCL8 [11])?
**A.** 0.1 s⁻¹

**Q.** What about the kon (murine CCL8 [11]) of the same binder?
**A.** 1.3e+06 M⁻¹ s⁻¹

**Q.** And the koff (human CCL2 [12])?
**A.** 0.012 s⁻¹

**Q.** What about the kon (human CCL2 [12]) of the same binder?
**A.** 1e+06 M⁻¹ s⁻¹

**Q.** What about the koff (murine CCL20 [13]) of the same binder?
**A.** 0.031 s⁻¹

**Q.** And the kon (murine CCL20 [13])?
**A.** 6.5e+06 M⁻¹ s⁻¹

**Q.** And the koff (CCL9 [14])?
**A.** 0.01 s⁻¹

**Q.** What about the kon (CCL9 [14]) of the same binder?
**A.** 3.6e+06 M⁻¹ s⁻¹

**Q.** Does B1 bind (murine IL-13)?
**A.** no binding

**Q.** And the Kd (murine CCL3 [15])?
**A.** 1.4 nM

**Q.** What about the Kd (human CCL3) of the same binder?
**A.** 1.4 nM

**Q.** And the Kd (human CCL2 [16])?
**A.** 12 nM
